Assays:
[1] = molecular target: the molecule itself; assay: cryo-EM structure; single-particle cryo-EM of the co-expressed, co-purified Pex5–Eci1 complex (2 mg/ml, in PBS); 2.7 Å global, 2.9 Å local refinement of Pex5 and the interface
[2] = molecular target: T1, Pex5 (full-length Saccharomyces cerevisiae Pex5, 1-612, His-Sumo fusion cleaved off) (Saccharomyces cerevisiae, UniProt P35056 1-612); assay: as above; settings: both partners purified
T1 construct: Pex5, peroxisomal PTS1 cargo factor, Saccharomyces cerevisiae, full-length (1-612), cloned into pET28-bdSumo; only L276-F612 is resolved in the cryo-EM map; also called yeast Pex5; full-length yeast Pex5; source: for cryo-EM co-expressed with Eci1 and co-purified (Ni beads, elution by bdSumo protease, SEC); not shown: His tag, N-terminal, cleaved; bdSumo, N-terminal, cleaved
T1 sequence (looked up): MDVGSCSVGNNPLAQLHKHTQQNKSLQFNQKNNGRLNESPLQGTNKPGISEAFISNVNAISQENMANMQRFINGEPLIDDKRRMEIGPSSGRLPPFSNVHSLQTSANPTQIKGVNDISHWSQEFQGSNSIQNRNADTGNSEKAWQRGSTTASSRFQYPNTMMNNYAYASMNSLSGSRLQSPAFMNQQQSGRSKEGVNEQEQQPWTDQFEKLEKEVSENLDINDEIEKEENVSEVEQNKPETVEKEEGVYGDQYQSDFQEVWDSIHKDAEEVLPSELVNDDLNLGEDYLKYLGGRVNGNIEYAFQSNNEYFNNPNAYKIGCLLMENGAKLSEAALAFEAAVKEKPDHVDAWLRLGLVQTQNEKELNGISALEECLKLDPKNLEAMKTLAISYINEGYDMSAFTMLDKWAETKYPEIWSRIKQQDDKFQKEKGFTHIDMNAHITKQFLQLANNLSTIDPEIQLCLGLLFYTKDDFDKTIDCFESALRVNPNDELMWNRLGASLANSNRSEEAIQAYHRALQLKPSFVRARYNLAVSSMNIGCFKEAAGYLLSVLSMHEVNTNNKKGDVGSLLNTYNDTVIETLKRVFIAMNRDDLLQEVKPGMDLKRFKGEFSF

stoichiometry N [2]: 6 Eci1 per Pex5
B1: FLAG-Eci1 wild type (Saccharomyces cerevisiae Δ3,Δ2-enoyl-CoA isomerase 1) (natural protein, UniProt Q05871 1-280, looked up)
chain: MSQEIRQNEKISYRIEGPFFIIHLMNPDNLNALEGEDYIYLGELLELADRNRDVYFTIIQSSGRFFSSGADFKGIAKAQGDDTNKYPSETSKWVSNFVARNVYVTDAFIKHSKVLICCLNGPAIGLSAALVALCDIVYSINDKVYLLYPFANLGLITEGGTTVSLPLKFGTNTTYECLMFNKPFKYDIMCENGFISKNFNMPSSNAEAFNAKVLEELREKVKGLYLPSCLGMKKLLKSNHIDAFNKANSVEVNESLKYWVDGEPLKRFRQLGSKQRKHRL
notes: Eci1 (Δ3,Δ2-enoyl-CoA isomerase 1), Saccharomyces cerevisiae, wild type, M1-L280, ends in the PTS1 tripeptide 278HRL280; cloned into the first open reading frame of pACYCDuet-1; A TEV cleavage site follows the N-terminal FLAG tag; no TEV cleavage is described; Hexamer by cryo-EM; also called Eci1 WT; Eci1 (WT); source: E. coli BL21(DE3): co-expressed with Pex5, in lysate (pull-down); purified …
stoichiometry N [1]: 6
